Measured values: paper PMC10550955

Experiments:
γ-globulin = test: SPR; homotypic: protein immobilised on CM5 or CM3 chip (~800-1000 RU), the same protein injected at increasing concentrations; BIAcore T200; 20 mM sodium phosphate buffer, pH 7.4; two-state model, one-state model for α-Syn and Chymo
β-cas = test: as above

Kd (γ-globulin) | Kd (β-cas) | Substance
< 500 nM |  | γ-globulin (natural protein)
 | < 500 nM | β-cas (natural protein)
